Where no end group is shown, it is not given here.
Tests used:
Atg8 [1] = target: T1, Atg8 (Saccharomyces cerevisiae, UniProt P38182, K26P); experiment: biochemical; type: binding
T1 construct: Atg8 1–117; GST (N, cleaved yes); made in house; host or cells: Escherichia coli Rosetta pLysS DE3
From the text: To test this hypothesis, we titrated 12 amino acid-long peptides containing the respective LIR-like motif in the center (Fig. 1) into labeled Atg8 and recorded the CSCs (Fig. 5). […] We attempted to determine a more exact Kd for the FYSF and LPEL peptides by isothermal titration calorimetry.
To corroborate our NMR-based interactions studies, we attempted to measure their interaction with Atg8 by isothermal titration calorimetry.

[2] = target: GST-Atg19 CTD W412A (S. cerevisiae) (UniProt P35193); experiment: microscopy-based protein-protein interaction assay on beads; glutathione-Sepharose beads coated with GST-Atg19 CTDs, washed, in 1 μM EGFP-Atg8 solution, 25 mM HEPES pH 7.5, 150 mM NaCl, 1 mM DTT; imaged by spinning disc microscopy without washing; signal normalized to wild type
[3] = target: GST-Atg19 CTD F376A, F379A, L384A, L387A (S. cerevisiae) (UniProt P35193); experiment: as above
[4] = target: GST-Atg19 CTD L384A, L387A (S. cerevisiae) (UniProt P35193); experiment: as above
[5] = target: T2, Atg8 K26P, 15N isotope-labeled (S. cerevisiae, UniProt P38182 1-117, K26P, 15N isotope-labeled); experiment: NMR titration; unlabeled Atg19 CTD or peptide titrated into 15N-labeled Atg8 K26P; 2D 15N HSQC at 25 °C; Atg8 135-500 μM, Atg19 C terminus 15-1000 μM; Kd estimated as the median of one-site saturation fits of CSCs of four to twelve Atg8 residues; settings: both partners purified
T2 construct: Atg8, S. cerevisiae, amino acids 1-117, K26P mutant used for stability in NMR; Cloned in pGEX-4-T1; GST cut off with thrombin; also called [15N]Atg8; K26P mutant of Atg8; source: E. coli Rosetta pLysS DE3 in M9 minimal medium with [15N]ammonium chloride, purified (glutathione beads, thrombin, SEC)
T2 sequence (looked up): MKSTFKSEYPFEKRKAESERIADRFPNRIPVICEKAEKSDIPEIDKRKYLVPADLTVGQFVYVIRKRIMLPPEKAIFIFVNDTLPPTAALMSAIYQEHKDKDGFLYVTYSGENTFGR

[6] = target: Atg8 used for isothermal titration calorimetry (S. cerevisiae) (UniProt P38182); experiment: ITC; peptides titrated, Atg8; conditions not given
EGFP-Atg8 = experiment: Microscopy-based protein-protein interaction assay: EGFP-Atg8 recruited to glutathione-Sepharose beads coated with GST-Atg19 CTD; type: binding, Saccharomyces cerevisiae; settings: GST-tagged Atg19 CTD on glutathione-Sepharose beads, 1 μM EGFP-Atg8, 30 min, spinning disc microscopy; mean of 3 experiments
From the text: To confirm the contributions of the ^376FYSF^379 and ^384LPEL^387 motifs for Atg8 binding, we employed a microscopy-based protein-protein interaction assay. To this end, EGFP-Atg8 in solution was recruited to glutathione-Sepharose beads coated with GST-Atg19 C termini (Fig. 6, A and B). Atg8 bound efficiently to beads coated with the wild-type C terminus. Upon introduction of the W412A mutation, the Atg8 signal on the beads dropped to 23%.
FIGURE 6. Accessory LIR motifs contribute to Atg8 binding in a microscopy-based interaction assay. A, glutathione-Sepharose beads were coated with GST-tagged Atg19 CTDs, washed, incubated in a 1 μM EGFP-Atg8 solution, and imaged by spinning disc microscopy. B, signal intensity of EGFP-Atg8 decreased for the LIR and accessory LIR mutants. C, quantification of the EGFP signal (mean ± S.D. from 3 experiments) on GST-Atg19 CTD-coated beads normalized to the mean signal on wild-type GST-Atg19 CTD-coated beads. Scale bars = 30 μm. TEXT PRINTED IN THE PICTURE: (B) W412A: relative binding (%): 23% | (B) L384, L387A: relative binding (%): 47% | (B) F376, F379, L384, L387A: relative binding (%): 25% | (B) L384, L387, W412A: relative binding (%): 7% | (B) F376, F379, L384, L387, W412A: relative binding (%): 2%
Glutathione-Sepharose 4B beads (GE Healthcare) were incubated with GST-tagged Atg19 C terminus for 1 h at 4 °C. After washing the beads three times with 25 mM HEPES (pH 7.5), 150 mM NaCl, and 1 mM DTT, 1 μl of a 1:1 resuspension of glutathione beads in protein solution was added to a 1 μM solution of EGFP-Atg8 30 min prior to imaging. Microscopic images were acquired using a confocal spinning disc microscope (Visitron) and processed with ImageJ software.

Atg8 [7] = settings: ITC-based Kd determination; read-out: Kd by ITC, full-length Atg19; cited from earlier work
EGFP-Atg8, P38182 = target: T3, EGFP-Atg8, P38182; experiment: microscopy-based protein-protein interaction assay (GST-Atg19 CTD on glutathione-Sepharose beads, spinning disc microscopy); settings: chain shown with the change; 1 μm EGFP-Atg8 solution; parent: 100
T3 chain: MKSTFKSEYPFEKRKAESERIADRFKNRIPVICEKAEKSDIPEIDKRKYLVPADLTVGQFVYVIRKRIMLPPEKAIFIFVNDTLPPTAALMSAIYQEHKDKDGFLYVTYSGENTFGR

GDDNEKALTWEEL [canonical LIR peptide]
Kd (Atg8 [1]): 2800 nM

EGFP-Atg8 (from UniProt P38182 1-116) (natural protein)
EGFP-Atg8 signal on beads, percent of wild type [2]: 23%
EGFP-Atg8 signal on beads, percent of wild type [3]: 25%
EGFP-Atg8 signal on beads, percent of wild type [4]: 47%

B1: Atg19 CTD (amino acids 365-407) F376A, F379A, L384A, L387A (domain or fragment, S. cerevisiae, UniProt P35193 365-407, looked up)
chain: SAESLQASQEPAYSAQIDTAPEADDSSIISTSISLSYDGDDNE
notes: Atg19, S. cerevisiae, amino acids 365-407 (last eight amino acids 408-415 deleted), F376A, F379A, L384A, L387A; also called FFLLΔ; source: E. coli Rosetta pLysS DE3, purified (glutathione beads, thrombin, SEC)
Kd [5]: 600 µM

B2: peptide containing the canonical 412WEEL415 motif (Atg19, 403…415) (peptide)
peptide: GDDNEKALTWEEL
Kd [6]: 2800 nM

B3: 12 amino acid peptide containing 376FYSF379 of Atg19 (peptide)
chain: SQEPFYSFQIDT
Kd [5]: ~330 µM

B4: W412A (protein, UniProt P35193 1-415, looked up, variant W412A)
Autophagy-related protein 19: MNNSKTNQQMNTSMGYPLTVYDECNKFQLIVPTLDANIMLWCIGQLSLLNDSNGCKHLFWQPNDKSNVRILLNNYDYGHLFKYLQCQRKCSVYIGEGTLKKYNLTISTSFDNFLDLTPSEEKESLCREDAHEDPVSPKAGSEEEISPNSTSNVVVSRECLDNFMKQLLKLEESLNKLELEQKVTNKEPNHRISGTIDIPEDRSELVNFFTELKTVKQLEDVFQRYHDYERLSQECDSKTEIASDHSKKETKIEVEPPNERSLQITMNQRDNSLYFQLFNNTNSVLAGNCKLKFTDAGDKPTTQIIDMGPHEIGIKEYKEYRYFPYALDLEAGSTIEIENQYGEVIFLGKYGSSPMINLRPPSRLSAESLQASQEPFYSFQIDTLPELDDSSIISTSISLSYDGDDNEKALTAEEL
relative binding (EGFP-Atg8 signal on beads, normalized to wild-type GST-Atg19 CTD) (EGFP-Atg8): 23%

B5: F376, F379, L384, L387A (protein, UniProt P35193 1-415, looked up, variant F376A F379A L384A L387A)
Autophagy-related protein 19: MNNSKTNQQMNTSMGYPLTVYDECNKFQLIVPTLDANIMLWCIGQLSLLNDSNGCKHLFWQPNDKSNVRILLNNYDYGHLFKYLQCQRKCSVYIGEGTLKKYNLTISTSFDNFLDLTPSEEKESLCREDAHEDPVSPKAGSEEEISPNSTSNVVVSRECLDNFMKQLLKLEESLNKLELEQKVTNKEPNHRISGTIDIPEDRSELVNFFTELKTVKQLEDVFQRYHDYERLSQECDSKTEIASDHSKKETKIEVEPPNERSLQITMNQRDNSLYFQLFNNTNSVLAGNCKLKFTDAGDKPTTQIIDMGPHEIGIKEYKEYRYFPYALDLEAGSTIEIENQYGEVIFLGKYGSSPMINLRPPSRLSAESLQASQEPAYSAQIDTAPEADDSSIISTSISLSYDGDDNEKALTWEEL
relative binding (EGFP-Atg8 signal on beads, normalized to wild-type GST-Atg19 CTD) (EGFP-Atg8): 25%

B6: full-length Atg19: full-length Atg19 cargo receptor of S. cerevisiae (protein, UniProt P35193 1-415, looked up)
chain: MNNSKTNQQMNTSMGYPLTVYDECNKFQLIVPTLDANIMLWCIGQLSLLNDSNGCKHLFWQPNDKSNVRILLNNYDYGHLFKYLQCQRKCSVYIGEGTLKKYNLTISTSFDNFLDLTPSEEKESLCREDAHEDPVSPKAGSEEEISPNSTSNVVVSRECLDNFMKQLLKLEESLNKLELEQKVTNKEPNHRISGTIDIPEDRSELVNFFTELKTVKQLEDVFQRYHDYERLSQECDSKTEIASDHSKKETKIEVEPPNERSLQITMNQRDNSLYFQLFNNTNSVLAGNCKLKFTDAGDKPTTQIIDMGPHEIGIKEYKEYRYFPYALDLEAGSTIEIENQYGEVIFLGKYGSSPMINLRPPSRLSAESLQASQEPFYSFQIDTLPELDDSSIISTSISLSYDGDDNEKALTWEEL
modifications: full-length
notes: full-length Atg19 cargo receptor of S. cerevisiae
Kd (Atg8 [7]): 35 µM

B7: L384, L387, W412A (protein, UniProt P35193 1-415, looked up, variant L384A L387A W412A)
Autophagy-related protein 19: MNNSKTNQQMNTSMGYPLTVYDECNKFQLIVPTLDANIMLWCIGQLSLLNDSNGCKHLFWQPNDKSNVRILLNNYDYGHLFKYLQCQRKCSVYIGEGTLKKYNLTISTSFDNFLDLTPSEEKESLCREDAHEDPVSPKAGSEEEISPNSTSNVVVSRECLDNFMKQLLKLEESLNKLELEQKVTNKEPNHRISGTIDIPEDRSELVNFFTELKTVKQLEDVFQRYHDYERLSQECDSKTEIASDHSKKETKIEVEPPNERSLQITMNQRDNSLYFQLFNNTNSVLAGNCKLKFTDAGDKPTTQIIDMGPHEIGIKEYKEYRYFPYALDLEAGSTIEIENQYGEVIFLGKYGSSPMINLRPPSRLSAESLQASQEPFYSFQIDTAPEADDSSIISTSISLSYDGDDNEKALTAEEL
relative binding (EGFP-Atg8 signal on beads, normalized to wild-type GST-Atg19 CTD) (EGFP-Atg8): 7%

B8: L384A, L387A (protein, UniProt P35193 1-415, looked up, variant L384A L387A)
Autophagy-related protein 19: MNNSKTNQQMNTSMGYPLTVYDECNKFQLIVPTLDANIMLWCIGQLSLLNDSNGCKHLFWQPNDKSNVRILLNNYDYGHLFKYLQCQRKCSVYIGEGTLKKYNLTISTSFDNFLDLTPSEEKESLCREDAHEDPVSPKAGSEEEISPNSTSNVVVSRECLDNFMKQLLKLEESLNKLELEQKVTNKEPNHRISGTIDIPEDRSELVNFFTELKTVKQLEDVFQRYHDYERLSQECDSKTEIASDHSKKETKIEVEPPNERSLQITMNQRDNSLYFQLFNNTNSVLAGNCKLKFTDAGDKPTTQIIDMGPHEIGIKEYKEYRYFPYALDLEAGSTIEIENQYGEVIFLGKYGSSPMINLRPPSRLSAESLQASQEPFYSFQIDTAPEADDSSIISTSISLSYDGDDNEKALTWEEL
relative binding (EGFP-Atg8 signal on beads, normalized to wild-type GST-Atg19 CTD) (EGFP-Atg8): 47%

B9: 12 amino acid peptide containing 384LPEL387 of Atg19 (peptide)
chain: QIDTLPELDDSS
Kd [5]: ~590 µM

B10: GST-Atg19 CTD, wild type, P35193 L384A; L387A; W412A (protein)
chain: SAESLQASQEPFYSFQIDTAPEADDSSIISTSISLSYDGDDNEKALTAEEL
percent of parent (EGFP-Atg8, P38182): 7%

B11: Atg19 C-terminal domain (amino acids 365-415), wild type (domain or fragment, S. cerevisiae, UniProt P35193 365-415, looked up)
chain: SAESLQASQEPFYSFQIDTLPELDDSSIISTSISLSYDGDDNEKALTWEEL
notes: Atg19, S. cerevisiae, C-terminal domain, amino acids 365-415; also called Atg19 CTD; wild-type Atg19 C terminus; source: E. coli Rosetta pLysS DE3, purified (glutathione beads, thrombin, SEC)
Kd [5]: ~130 µM

B12: GST-Atg19 CTD, wild type, P35193 F376A; F379A; L384A; L387A; W412A (protein)
chain: SAESLQASQEPAYSAQIDTAPEADDSSIISTSISLSYDGDDNEKALTAEEL
percent of parent (EGFP-Atg8, P38182): 2%

B13: Atg19 CTD F376A, F379A, W412A (amino acids 365-415) (domain or fragment, S. cerevisiae, UniProt P35193 365-415, looked up)
chain: SAESLQASQEPAYSAQIDTLPELDDSSIISTSISLSYDGDDNEKALTAEEL
notes: Atg19, S. cerevisiae, C-terminal domain, amino acids 365-415, F376A, F379A, W412A; also called FFWA; triple mutant C terminus; source: E. coli Rosetta pLysS DE3, purified (glutathione beads, thrombin, SEC)
Kd [5]: 290 µM

B14: Atg19 CTD L384A, L387A (amino acids 365-415) (domain or fragment, S. cerevisiae, UniProt P35193 365-415, looked up)
chain: SAESLQASQEPFYSFQIDTAPEADDSSIISTSISLSYDGDDNEKALTWEEL
notes: Atg19, S. cerevisiae, C-terminal domain, amino acids 365-415, L384A, L387A; also called LLA; source: E. coli Rosetta pLysS DE3, purified (glutathione beads, thrombin, SEC)
Kd [5]: ~70 µM

B15: Atg19 W412A CTD (amino acids 365-415) (domain or fragment, S. cerevisiae, UniProt P35193 365-415, looked up)
chain: SAESLQASQEPFYSFQIDTLPELDDSSIISTSISLSYDGDDNEKALTAEEL
notes: Atg19, S. cerevisiae, C-terminal domain, amino acids 365-415, W412A; also called WA; W412A mutant Atg19 CTD; source: E. coli Rosetta pLysS DE3, purified (glutathione beads, thrombin, SEC)
Kd [5]: 180 µM

— publication PMC5009254, “Accessory Interaction Motifs in the Atg19 Cargo Receptor Enable Strong Binding to the Clustered Ubiquitin-related Atg8 Protein*^([image sbox.jpg])” (The Journal of Biological Chemistry, 2016)
